Results: patent US20220017615A1 (SHANGHAI PHARMAEXPLORER, published 2022)
Changes are numbered by the printed parent chain.

What was measured:
[1] = target: T1, cynomolgus CD47, on CHOK1-cCD47 stable cell line (cynomolgus); experiment: flow cytometry (FACS) on CHOK1-cynoCD47 cells, mean fluorescence intensity
T1 construct: whole, on cells; check before use; also called CHOK1/cynoCD47; monkey-derived CD47
Experimental: (§1) The CHOK1-hCD47 stable cell lines and CHOK1-cCD47 stable cell lines were expanded to 90% confluence in a T-75 cell culture flask, the medium was exhausted, washed twice with HBSS buffer (Hanks balanced salt solution) (purchased from Invitrogen), and then treated and collected with enzyme-free cell dissociation solution (Versene solution: purchased from Life technology). The cells were washed twice with HBSS buffer. After counted, the cells were diluted with HBSS to 2×10⁶ cells per ml, added with 1% goat serum blocking solution, wherein the percentage was the mass percantage, incubated on ice for 30 minutes, and then washed twice with HBSS by centrifugation. […] The plate was washed 3 times with FACS buffer by centrifugation, added with 100 μl fixative solution [4% (v/v) Paraformaldehyde] per well to suspend the cells. 10 minutes later, it was washed twice with FACS buffer by centrifugation. The cells were suspended with 100 microliters of FACS buffer, FACS (FACS Calibur, purchased from BD) was used for detection and the results were analyzed.

[2] = target: T2, mouse CD47, on CHOK1/mCD47 cells (mouse, UniProt Q61735 19-303); experiment: flow cytometry (FACS) on CHOK1-mCD47 cells, mean fluorescence intensity
T2 construct: whole, on cells; also called murine CD47
T2 sequence (looked up): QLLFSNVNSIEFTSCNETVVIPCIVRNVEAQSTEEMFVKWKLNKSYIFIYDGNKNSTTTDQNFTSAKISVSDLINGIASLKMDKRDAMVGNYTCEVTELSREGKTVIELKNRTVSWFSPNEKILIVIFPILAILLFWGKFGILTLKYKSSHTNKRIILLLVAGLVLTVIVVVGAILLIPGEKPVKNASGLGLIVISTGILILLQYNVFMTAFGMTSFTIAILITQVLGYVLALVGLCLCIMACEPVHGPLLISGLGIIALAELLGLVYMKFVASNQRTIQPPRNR

[3] = target: T3, human CD47, full length, on transfected cells (human, UniProt Q08722 19-323); experiment: flow cytometry (FACS) on CHOK1-hCD47 cells, mean fluorescence intensity
T3 construct: whole, on cells; also called CHOK1-hCD47
Experimental: as §1

[4] = target: T4, biotin-labeled CD47 extracellular domain protein (CD47-ECD) (UniProt Q08722 19-139, limits assumed, biotin-labeled (sites not given)); experiment: blocking ELISA: SIRPα-hFc coated, biotin-labeled CD47-ECD added with the antibody, OD450; blocked ligand SIRPα-hFc
T4 construct: extracellular domain; also called CD47 protein

[5] = target: T5, His-tagged CD47 recombinant protein, CD47-His (human, UniProt Q08722 19-141, limits assumed); experiment: BLI (Octet Red 96), antibody on AHC sensor, CD47-His 100 nM
T5 construct: it is not restated for CD47-His; also called human CD47-His protein; antigen CD47-His; not shown: His tag

[6] = target: T5, His-tagged CD47 recombinant protein, …; experiment: ELISA on coated CD47-His; Ab 0 nM (background)
Experimental: (§2) The plate was sealed with plastic film and incubated at 4° C. overnight. The plate was washed twice with plate washing solution [PBS+0.01% (v/v) Tween20] the next day, and blocking solution [PBS+0.01% (v/v) Tween20 +1% (w/w) BSA] was added to block it at room temperature for 2 hours. […] After incubation at 37° C. for 2 hours, the plates were washed three times with plate washing solution [PBS+0.01% (v/v) Tween 20]. HRP (horseradish peroxidase) labeled secondary antibody (purchased from Sigma) was added, incubated at 37° C. for 2 hours, and then washed three times with plate washing solution [PBS+0.01% (v/v) Tween 20]. 1000 of TMB substrate was added to each well. After incubated at room temperature for 30 minutes, the plate was added with 100 μl of stop solution (1.0N HCl) to each well.

[7] = target: T3, human CD47, full length, on transfected …; experiment: FACS CHOK1-hCD47; Ab 1.6 nM
[8] = target: T5, His-tagged CD47 recombinant protein, …; experiment: ELISA on coated CD47-His; Ab 0.107 nM
[9] = target: T3, human CD47, full length, on transfected …; experiment: FACS CHOK1-hCD47; Ab 200 nM
Experimental: as §1

[10] = target: T4, biotin-labeled CD47 extracellular …; experiment: blocking ELISA, biotin-CD47-ECD on coated SIRPα-hFc; Ab 0.32 nM
[11] = target: T1, cynomolgus CD47, on CHOK1-cCD47 stable …; experiment: FACS CHOK1-cCD47; Ab 0.064 nM
Experimental: as §1

[12] = target: T3, human CD47, full length, on transfected …; experiment: FACS CHOK1-hCD47; Ab 40 nM
[13] = target: T1, cynomolgus CD47, on CHOK1-cCD47 stable …; experiment: FACS CHOK1-cCD47; Ab 0.0128 nM
Experimental: as §1

[14] = target: T3, human CD47, full length, on transfected …; experiment: FACS CHOK1-hCD47; Ab 8 nM
[15] = target: T4, biotin-labeled CD47 extracellular …; experiment: blocking ELISA, biotin-CD47-ECD on coated SIRPα-hFc; Ab 0 nM
[16] = target: T1, cynomolgus CD47, on CHOK1-cCD47 stable …; experiment: FACS CHOK1-cCD47; Ab 0 nM (background)
Experimental: as §1

[17] = target: T5, His-tagged CD47 recombinant protein, …; experiment: ELISA on coated CD47-His; Ab 2.667 nM
Experimental: as §2

[18] = target: T1, cynomolgus CD47, on CHOK1-cCD47 stable …; experiment: FACS CHOK1-cCD47; Ab 200 nM
Experimental: as §1

[19] = target: T4, biotin-labeled CD47 extracellular …; experiment: blocking ELISA, biotin-CD47-ECD on coated SIRPα-hFc; Ab 40 nM
[20] = target: T5, His-tagged CD47 recombinant protein, …; experiment: ELISA on coated CD47-His; Ab 13.333 nM
Experimental: as §2

[21] = target: T4, biotin-labeled CD47 extracellular …; experiment: blocking ELISA, biotin-CD47-ECD on coated SIRPα-hFc; Ab 0.064 nM
Experimental: (§3) The plate was sealed with plastic film and incubated at 4° C. overnight. The plate was washed twice with plate washing solution [PBS+0.01% (v/v) Tween20] on the next day, and blocking solution [PBS+0.01% (v/v) Tween20 +1% (w/w) BSA] was added to block it at room temperature for 2 hours. […] After incubation at 37° C. for 2 hours, the plate was washed three times with the plate washing solution [PBS+0.01% (v/v) Tween 20]. HRP (horseradish peroxidase) labeled avidin diluent (purchased from Sigma) was added as 100 microliters per well, and after the plate was incubated for 2 hours at 37° C., it was washed 3 times with washing solution [PBS+0.01% (v/v) Tween 20]. 100 μl of TMB substrate was added to each well. After incubated at room temperature for 30 minutes, the plate was added with 100 μl of stop solution (1.0N HCl) to each well.

[22] = target: T4, biotin-labeled CD47 extracellular …; experiment: blocking ELISA, biotin-CD47-ECD on coated SIRPα-hFc; Ab 1.6 nM
Experimental: as §3

[23] = target: T4, biotin-labeled CD47 extracellular …; experiment: blocking ELISA, biotin-CD47-ECD on coated SIRPα-hFc; Ab 8 nM
Experimental: as §3

[24] = target: T5, His-tagged CD47 recombinant protein, …; experiment: ELISA on coated CD47-His; Ab 0.021 nM
Experimental: as §2

[25] = target: T1, cynomolgus CD47, on CHOK1-cCD47 stable …; experiment: FACS CHOK1-cCD47; Ab 8 nM
Experimental: as §1

[26] = target: T3, human CD47, full length, on transfected …; experiment: FACS CHOK1-hCD47; Ab 0.064 nM
[27] = target: T3, human CD47, full length, on transfected …; experiment: FACS CHOK1-hCD47; Ab 0 nM (background)
[28] = target: T1, cynomolgus CD47, on CHOK1-cCD47 stable …; experiment: FACS CHOK1-cCD47; Ab 1.6 nM
[29] = target: T4, biotin-labeled CD47 extracellular …; experiment: blocking ELISA, biotin-CD47-ECD on coated SIRPα-hFc; Ab 200 nM
Experimental: as §3

[30] = target: T4, biotin-labeled CD47 extracellular …; experiment: blocking ELISA, biotin-CD47-ECD on coated SIRPα-hFc; Ab 0.0128 nM
Experimental: as §3

[31] = target: T1, cynomolgus CD47, on CHOK1-cCD47 stable …; experiment: FACS CHOK1-cCD47; Ab 40 nM
Experimental: as §1

[32] = target: T3, human CD47, full length, on transfected …; experiment: FACS CHOK1-hCD47; Ab 0.32 nM
Experimental: as §1

[33] = target: T5, His-tagged CD47 recombinant protein, …; experiment: ELISA on coated CD47-His; Ab 0.004 nM
Experimental: as §2

[34] = target: T1, cynomolgus CD47, on CHOK1-cCD47 stable …; experiment: FACS CHOK1-cCD47; Ab 0.32 nM
Experimental: as §1

[35] = target: T5, His-tagged CD47 recombinant protein, …; experiment: ELISA on coated CD47-His; Ab 0.533 nM
Experimental: as §2

[36] = target: T5, His-tagged CD47 recombinant protein, …; experiment: ELISA on coated CD47-His; Ab 66.667 nM
Experimental: as §2

[37] = target: T3, human CD47, full length, on transfected …; experiment: FACS CHOK1-hCD47; Ab 0.0128 nM

B1: 29A03 WT (antibody, V domains shown)
VH: EVQLQQSGAELVKPGASVKMSCKASGYTFTNYWITWVKQRPGQGLEWIGDIYPVSGGTDYNEKFKTRATLTVDTSSSTAYMHLSSLTSEDSAVYYCARKGRGGVDYWGQGTTLTVSS
VL: DILMTQTPLSLPVSLGDQASISCRSSQSIVHSNGNTYLEWYLQKPGQSPKLLIYKVSNRFSGVPDRFSGSGSGTDFTLKISRVEAEDLGVYFCSQSTHVPYTFGGGTKLEIK
notes: WT = NG site of CDR-L1 not mutated
EC50 (read off the curve) [1]: ~3 nM | EC50 (read off the curve) [2]: ~10 nM | EC50 (read off the curve) [3]: ~5 nM

B2: 29A03 QG (antibody, V domains shown)
VH: B1 VH
VL: B1 VL with N33Q
IC50 (read off the curve) [4]: ~3 nM | EC50 (read off the curve) [1]: ~3 nM | EC50 (read off the curve) [2]: ~10 nM | EC50 (read off the curve) [3]: ~5 nM

B3: c29A03NA (antibody, V domains shown)
VH: B1 VH
VL: B1 VL with G34A
notes: Phage-derived clone 29A03 with the NG site of CDRL1 mutated to NA
Kd [5]: 4.69 nM | koff [5]: 0.00207 s⁻¹ | kon [5]: 442000 M⁻¹ s⁻¹ | IC50 (read off the curve) [4]: ~1 nM | EC50 (read off the curve) [1]: ~3 nM | EC50 (read off the curve) [2]: ~10 nM | EC50 (read off the curve) [3]: ~5 nM

B4: Hu5F9-G4 (antibody, V domains shown)
VH: QVQLVQSGAEVKKPGASVKVSCKASGYTFTNYNMHWVRQAPGQRLEWMGTIYPGNDDTSYNQKFKDRVTITADTSASTAYMELSSLRSEDTAVYYCARGGYRAMDYWGQGTLVTVSS
VL: DIVMTQSPLSLPVTPGEPASISCRSSQSIVYSNGNTYLGWYLQKPGQSPQLLIYKVSNRFSGVPDRFSGSGSGTDFTLKISRVEAEDVGVYYCFQGSHVPYTFGQGTKLEIKR
EC50 (read off the curve) [1]: ~3 nM

B5: 132D1E5 (antibody, V domains shown)
VH: QVQLQQPGAELVRPGSSVKLSCKASGYTFTNNWMHWVKQRPLQGLEWIGNIDPSDSETHYNQKFKDKATLTVDKSSTTAYIQLSSLTSEDSAVYYCARWRGGGRGAMDYWGQGTSVTVSS
VL: DVQITQSPSYLAASPGETITINCRTSKNISKFLAWYQEKPGKTNKLLIYSGSTLQSGIPSRFSGSGSGTDFTLTISNLEPEDFAMYYCQQHNEYPWTFGRGTKLEIK
notes: Murine hybridoma antibody purified on protein G
OD450 nm [6]: 0.06 | mean fluorescence intensity [7]: 3750 | OD450 nm [8]: 1.83 | mean fluorescence intensity [9]: 7100 | OD450 nm of CD47 bound to SIRPα [10]: 0.79 | mean fluorescence intensity [11]: 689 | mean fluorescence intensity [12]: 8230 | mean fluorescence intensity [13]: 224 | mean fluorescence intensity [14]: 6310 | OD450 nm of CD47 bound to SIRPα [15]: 2.89 | mean fluorescence intensity [16]: 72.5 | OD450 nm [17]: 3.07 | mean fluorescence intensity [18]: 6970 | OD450 nm of CD47 bound to SIRPα [19]: 0.08 | OD450 nm [20]: 2.95 | OD450 nm of CD47 bound to SIRPα [21]: 2.55 | OD450 nm of CD47 bound to SIRPα [22]: 0.16 | OD450 nm of CD47 bound to SIRPα [23]: 0.07 | OD450 nm [24]: 0.49 | mean fluorescence intensity [25]: 8740 | mean fluorescence intensity [26]: 318 | mean fluorescence intensity [27]: 18.1 | mean fluorescence intensity [28]: 6060 | OD450 nm of CD47 bound to SIRPα [29]: 0.08 | OD450 nm of CD47 bound to SIRPα [30]: 2.92 | mean fluorescence intensity [31]: 5610 | mean fluorescence intensity [32]: 1330 | OD450 nm [33]: 0.14 | mean fluorescence intensity [34]: 2060 | OD450 nm [35]: 2.96 | OD450 nm [36]: 2.88 | mean fluorescence intensity [37]: 88.4
